Reference: the Human Domainome abundance scans (Beltran et al. 2025)
± gives the uncertainty stated by the source.

B1: POU domain, class 5, transcription factor 1, residues 134 to 212; numbered along this chain, Q01860 (parent)
chain: EESQDIKALQKELEQFAKLLKQKRITLGYTQADVGLTLGVLFGKVFSQTTICRFEALQLSFKNMCKLRPLLQKWVEEAD

Variants of: B1
Assay: abundance fitness (aPCA) (normalised: wild type 0, dead -1); higher = more abundant; growth selection in yeast, the domain comes from the species named
Details: Homo sapiens

Row | Variant | abundance fitness
1 | EESQDFKALQKELEQFAKLLKQKRITLGYTQADVGLTLGVLFGKVFSQTTICRFEALQLSFKNMCKLRPLLQKWVEEAD | 0.052 ± 0.27
2 | EESQDGKALQKELEQFAKLLKQKRITLGYTQADVGLTLGVLFGKVFSQTTICRFEALQLSFKNMCKLRPLLQKWVEEAD | -0.122 ± 0.077
3 | EESQDKKALQKELEQFAKLLKQKRITLGYTQADVGLTLGVLFGKVFSQTTICRFEALQLSFKNMCKLRPLLQKWVEEAD | 0.359 ± 0.12
4 | EESQDLKALQKELEQFAKLLKQKRITLGYTQADVGLTLGVLFGKVFSQTTICRFEALQLSFKNMCKLRPLLQKWVEEAD | -0.143 ± 0.1
5 | EESQDMKALQKELEQFAKLLKQKRITLGYTQADVGLTLGVLFGKVFSQTTICRFEALQLSFKNMCKLRPLLQKWVEEAD | 0.1 ± 0.12
6 | EESQDNKALQKELEQFAKLLKQKRITLGYTQADVGLTLGVLFGKVFSQTTICRFEALQLSFKNMCKLRPLLQKWVEEAD | -0.082 ± 0.23
7 | EESQDPKALQKELEQFAKLLKQKRITLGYTQADVGLTLGVLFGKVFSQTTICRFEALQLSFKNMCKLRPLLQKWVEEAD | -0.015 ± 0.14
8 | EESQDQKALQKELEQFAKLLKQKRITLGYTQADVGLTLGVLFGKVFSQTTICRFEALQLSFKNMCKLRPLLQKWVEEAD | 0.063 ± 0.14
9 | EESQDSKALQKELEQFAKLLKQKRITLGYTQADVGLTLGVLFGKVFSQTTICRFEALQLSFKNMCKLRPLLQKWVEEAD | -0.054 ± 0.14
10 | EESQDTKALQKELEQFAKLLKQKRITLGYTQADVGLTLGVLFGKVFSQTTICRFEALQLSFKNMCKLRPLLQKWVEEAD | 0.195 ± 0.12
11 | EESQDVKALQKELEQFAKLLKQKRITLGYTQADVGLTLGVLFGKVFSQTTICRFEALQLSFKNMCKLRPLLQKWVEEAD | -0.749 ± 0.2
12 | EESQDWKALQKELEQFAKLLKQKRITLGYTQADVGLTLGVLFGKVFSQTTICRFEALQLSFKNMCKLRPLLQKWVEEAD | -0.351 ± 0.17
13 | EESQDIAALQKELEQFAKLLKQKRITLGYTQADVGLTLGVLFGKVFSQTTICRFEALQLSFKNMCKLRPLLQKWVEEAD | -0.007 ± 0.062
14 | EESQDICALQKELEQFAKLLKQKRITLGYTQADVGLTLGVLFGKVFSQTTICRFEALQLSFKNMCKLRPLLQKWVEEAD | -0.132 ± 0.086
15 | EESQDIDALQKELEQFAKLLKQKRITLGYTQADVGLTLGVLFGKVFSQTTICRFEALQLSFKNMCKLRPLLQKWVEEAD | 0.061 ± 0.098
16 | EESQDIEALQKELEQFAKLLKQKRITLGYTQADVGLTLGVLFGKVFSQTTICRFEALQLSFKNMCKLRPLLQKWVEEAD | -0.025 ± 0.075
17 | EESQDIFALQKELEQFAKLLKQKRITLGYTQADVGLTLGVLFGKVFSQTTICRFEALQLSFKNMCKLRPLLQKWVEEAD | -0.257 ± 0.13
18 | EESQDIGALQKELEQFAKLLKQKRITLGYTQADVGLTLGVLFGKVFSQTTICRFEALQLSFKNMCKLRPLLQKWVEEAD | -0.193 ± 0.055

Row | Variant | abundance fitness
19 | EESQDIHALQKELEQFAKLLKQKRITLGYTQADVGLTLGVLFGKVFSQTTICRFEALQLSFKNMCKLRPLLQKWVEEAD | -0.193 ± 0.15
20 | EESQDIIALQKELEQFAKLLKQKRITLGYTQADVGLTLGVLFGKVFSQTTICRFEALQLSFKNMCKLRPLLQKWVEEAD | -0.391 ± 0.22
21 | EESQDILALQKELEQFAKLLKQKRITLGYTQADVGLTLGVLFGKVFSQTTICRFEALQLSFKNMCKLRPLLQKWVEEAD | -0.073 ± 0.061
22 | EESQDIMALQKELEQFAKLLKQKRITLGYTQADVGLTLGVLFGKVFSQTTICRFEALQLSFKNMCKLRPLLQKWVEEAD | -0.319 ± 0.12
23 | EESQDINALQKELEQFAKLLKQKRITLGYTQADVGLTLGVLFGKVFSQTTICRFEALQLSFKNMCKLRPLLQKWVEEAD | -0.022 ± 0.14
24 | EESQDIPALQKELEQFAKLLKQKRITLGYTQADVGLTLGVLFGKVFSQTTICRFEALQLSFKNMCKLRPLLQKWVEEAD | -0.124 ± 0.099
25 | EESQDIQALQKELEQFAKLLKQKRITLGYTQADVGLTLGVLFGKVFSQTTICRFEALQLSFKNMCKLRPLLQKWVEEAD | -0.142 ± 0.1
26 | EESQDISALQKELEQFAKLLKQKRITLGYTQADVGLTLGVLFGKVFSQTTICRFEALQLSFKNMCKLRPLLQKWVEEAD | -0.05 ± 0.063
27 | EESQDITALQKELEQFAKLLKQKRITLGYTQADVGLTLGVLFGKVFSQTTICRFEALQLSFKNMCKLRPLLQKWVEEAD | -0.162 ± 0.1
28 | EESQDIVALQKELEQFAKLLKQKRITLGYTQADVGLTLGVLFGKVFSQTTICRFEALQLSFKNMCKLRPLLQKWVEEAD | -0.085 ± 0.065
29 | EESQDIWALQKELEQFAKLLKQKRITLGYTQADVGLTLGVLFGKVFSQTTICRFEALQLSFKNMCKLRPLLQKWVEEAD | -0.173 ± 0.074
30 | EESQDIYALQKELEQFAKLLKQKRITLGYTQADVGLTLGVLFGKVFSQTTICRFEALQLSFKNMCKLRPLLQKWVEEAD | -0.12 ± 0.14
31 | EESQDIKCLQKELEQFAKLLKQKRITLGYTQADVGLTLGVLFGKVFSQTTICRFEALQLSFKNMCKLRPLLQKWVEEAD | 0.222 ± 0.21
32 | EESQDIKELQKELEQFAKLLKQKRITLGYTQADVGLTLGVLFGKVFSQTTICRFEALQLSFKNMCKLRPLLQKWVEEAD | -0.08 ± 0.4
33 | EESQDIKGLQKELEQFAKLLKQKRITLGYTQADVGLTLGVLFGKVFSQTTICRFEALQLSFKNMCKLRPLLQKWVEEAD | -0.148 ± 0.14
34 | EESQDIKLLQKELEQFAKLLKQKRITLGYTQADVGLTLGVLFGKVFSQTTICRFEALQLSFKNMCKLRPLLQKWVEEAD | -0.318 ± 0.38
35 | EESQDIKPLQKELEQFAKLLKQKRITLGYTQADVGLTLGVLFGKVFSQTTICRFEALQLSFKNMCKLRPLLQKWVEEAD | 0.697 ± 0.5
